# Reference: publication PMC2901514 (The Febs Journal, 2010)
# B1: CMP-Neu5Ac synthetase (CNS) from Neisseria meningitidis, K142A mutant (enzyme)
# chain: MEKQNIAVILARQNSKGLPLKNLRKMNGISLLGHTINAAISSKCFDRIIVSTDGGLIAEEAKNFGVEVVLRPAELASDTASSISGVIHALETIGSNSGTVTLLQPTSPLRTGAHIREAFSLFDEKIKGSVVSACPMEHHPLATLLQINNGEYAPMRHLSDLEQPRQQLPQAFRPNGAIYINDTASLIANNCFFIAPTKLYIMSHQDSIDIDTELDLQQAENILNHKES
# Molecular target: the molecule itself
# Test: SEC
protein,measurement,value
B1,stoichiometry N,2
